The numbers were not newly measured in article PMC6136348, “In the quest for new targets for pathogen eradication: the adenylosuccinate synthetase from the bacterium Helicobacter pylori” (Journal of Enzyme Inhibition and Medicinal Chemistry, 2018), which cites them from elsewhere.

A word on the Kd: it is the concentration at which binding is half-saturated.

For this data set, the target named is Adenylosuccinate synthetase (Escherichia coli) (UniProt P0A7D4).

Chain of Adenylosuccinate synthetase (P0A7D4 2-432): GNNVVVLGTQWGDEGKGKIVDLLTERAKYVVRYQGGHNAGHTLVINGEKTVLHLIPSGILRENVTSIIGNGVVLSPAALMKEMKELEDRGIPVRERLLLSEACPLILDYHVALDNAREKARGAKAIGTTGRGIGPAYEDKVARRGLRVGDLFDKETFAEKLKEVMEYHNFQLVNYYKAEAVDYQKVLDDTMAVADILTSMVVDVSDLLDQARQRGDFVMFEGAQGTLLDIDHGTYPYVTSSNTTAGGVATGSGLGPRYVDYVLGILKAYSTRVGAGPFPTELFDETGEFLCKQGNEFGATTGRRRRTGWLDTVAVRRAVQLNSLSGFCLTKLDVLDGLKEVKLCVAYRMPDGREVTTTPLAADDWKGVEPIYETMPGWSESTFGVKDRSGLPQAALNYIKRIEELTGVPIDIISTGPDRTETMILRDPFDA

Regarding “Adenylosuccinate synthetase (from UniProt P0A7D4)”, the Kd was 10 µM.
